Measured values from paper PMC8406418 (2021).

Molecular target: T1, kappa-opioid receptor (KOR-EGFP) (Mus musculus, UniProt P33534)
T1 chain: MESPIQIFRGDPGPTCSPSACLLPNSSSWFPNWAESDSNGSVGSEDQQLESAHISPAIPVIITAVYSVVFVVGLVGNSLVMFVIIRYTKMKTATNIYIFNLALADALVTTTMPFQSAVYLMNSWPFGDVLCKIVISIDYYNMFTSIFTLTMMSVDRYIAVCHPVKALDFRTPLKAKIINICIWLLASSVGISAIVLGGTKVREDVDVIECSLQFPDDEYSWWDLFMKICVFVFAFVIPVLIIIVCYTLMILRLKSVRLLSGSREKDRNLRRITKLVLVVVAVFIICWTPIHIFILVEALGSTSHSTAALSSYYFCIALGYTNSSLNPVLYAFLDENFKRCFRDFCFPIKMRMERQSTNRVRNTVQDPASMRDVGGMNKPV
Test: radioligand displacement ([3H]-diprenorphine)

Q: How did the Ki turn out when MAWQGLVLAACLL [dynorphin A1-13 1-13] was run?
A: 0.3 nM
